± gives the uncertainty stated by the source.
Assay: self-splicing fitness, log relative to wild type (ln ratio); higher = more splicing; Tetrahymena group I intron in knt gene, E. coli kanamycin selection, DiMSum; sequences stand for … in CUCUCU…GGAGGGAAAAGUUAUCAGGCAUGCACCUGGUAGCUAGUCUUUAAACCAAUAGAUUGCAUCGGUUUAAAAGGCAAGACCGUCAAAUUGCGGGAAAGGGGUCAACAGCCGUUCAGUACCAAGUCUCAGGGGAAACUUUGAGAUGGCCUUGCAAAGGGUAUGGUAAUAAGCUGACGGACAUGGUCCUAACCACGCAGCCAAGUCCUAAGUCAACAGAUCUUCUGUUGAUAUGGAUGCAGUUCACAGACUAAAUGUCGGUCGGGGAAGAUGUAUUCUUCUCAUAAGAUAUAGUCGGACCUCUCCUUAAUGGGAGCUAGCGGAUGAAGUGAUGCAACACUGGAGCCGCUGGGAACUAAUUUGUAUGCGAAAGUAUAUUGAUUAGUUUUGGAGUACUCGUGGUCG
Procedure, shortened: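 Six replicate transformations of E. coli BL21(DE3) with a pET-22b(+) library were grown overnight at 37°C or 30°C. The library randomised all eight P1ex-region intron nucleotides, the intron lying in the knt kanamycin-resistance gene, and plates were LB agar with or without 25 μg/mL kanamycin plus 100 μg/mL carbenicillin, 50 μM IPTG and 0.2% rhamnose. Pooled colonies were amplicon-sequenced on an Illumina HiSeq 2500, and fitness is the DiMSum error-weighted combination of wild-type-normalised replicate fold changes, kanamycin versus none.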

| Sequence | self-splicing fitness (ln) (30 °C) | self-splicing fitness (ln) (37 °C) |
| --- | --- | --- |
| UAGUAGCAAUAUUACGUGUA | -3.16 ± 0.21 | -0.527 ± 0.12 |
| UGUCAGCAAUAUUACGCUCG | -0.552 ± 0.16 | 0.987 ± 0.32 |
| CCCAAGCAAUAUUACGGGAC | -4.01 ± 0.18 | -2.67 ± 0.15 |
| AACCAGCAAUAUUACGUUGG | -3.14 ± 0.12 | -2.42 ± 0.13 |
| UGGGAGCAAUAUUACGCACA | -0.967 ± 0.35 | 0.399 ± 0.35 |
| AGUCAGCAAUAUUACGUAGC | -2.97 ± 0.13 | -0.778 ± 0.097 |
| GGUGAGCAAUAUUACGGUAC | -1.95 ± 0.13 | -1.4 ± 0.18 |
| UCCAAGCAAUAUUACGACAA | -2.14 ± 0.13 | -1.47 ± 0.1 |
| UUCCAGCAAUAUUACGCACU | -3.48 ± 0.31 | -0.748 ± 0.16 |
| AUCUAGCAAUAUUACGCGGC | -3.15 ± 0.38 | -2.92 ± 0.33 |
| UGGAAGCAAUAUUACGAGAA | -2.05 ± 0.43 | -1.73 ± 0.3 |
| UCGAAGCAAUAUUACGUCUC | -2.49 ± 0.15 | -2.28 ± 0.32 |
| ACUUAGCAAUAUUACGUCAA | -4.05 ± 0.33 | -3.36 ± 0.3 |
| CGCGAGCAAUAUUACGCGUG | -2.29 ± 0.14 | -2.67 ± 0.15 |
| GAUUAGCAAUAUUACGACCU | -0.343 ± 0.13 | -0.777 ± 0.18 |
| ACUGAGCAAUAUUACGCCCC | -2.6 ± 0.34 | – |
| AGGCAGCAAUAUUACGUGCC | -2.9 ± 0.26 | -2.73 ± 0.31 |
| CCGCAGCAAUAUUACGCAAG | -1.41 ± 0.095 | -1.18 ± 0.13 |
| GGGAAGCAAUAUUACGCCAA | -1.66 ± 0.095 | -0.896 ± 0.1 |
| UUUAAGCAAUAUUACGACAG | -0.664 ± 0.15 | -0.475 ± 0.2 |
| GUCAAGCAAUAUUACGGAUA | -2.47 ± 0.19 | -1.27 ± 0.17 |
| AGCCAGCAAUAUUACGUUCU | -0.687 ± 0.053 | -0.266 ± 0.068 |
| GCGAAGCAAUAUUACGUUCA | -1.03 ± 0.13 | -0.809 ± 0.16 |
| GCCAAGCAAUAUUACGUUUA | -2.97 ± 0.19 | -2.28 ± 0.18 |
| GAAAAGCAAUAUUACGGGAA | -2.07 ± 0.14 | -0.425 ± 0.13 |

| Sequence | self-splicing fitness (ln) (30 °C) | self-splicing fitness (ln) (37 °C) |
| --- | --- | --- |
| UCUCAGCAAUAUUACGUCAU | -3.13 ± 0.2 | -3.29 ± 0.27 |
| UACUAGCAAUAUUACGGGGA | -1.37 ± 0.14 | -0.992 ± 0.12 |
| UAGUAGCAAUAUUACGUGGG | -3.26 ± 0.25 | -1.41 ± 0.17 |
| CACGAGCAAUAUUACGGACU | -3.12 ± 0.22 | -1.44 ± 0.25 |
| UCCCAGCAAUAUUACGACCA | -1.65 ± 0.13 | -1.06 ± 0.23 |
| GCCAAGCAAUAUUACGCAAG | -2.89 ± 0.17 | -1.7 ± 0.2 |
| CGAUAGCAAUAUUACGAAGU | -2.89 ± 0.18 | -2.58 ± 0.23 |
| AAGGAGCAAUAUUACGACUG | -1.75 ± 0.16 | -1.05 ± 0.18 |
| CCGUAGCAAUAUUACGCUCU | -2.65 ± 0.37 | -2.48 ± 0.39 |
| GAUAAGCAAUAUUACGGCGA | -0.337 ± 0.12 | 0.114 ± 0.13 |
| GCUUAGCAAUAUUACGUUAC | -2.56 ± 0.18 | -1.88 ± 0.19 |
| GUGAAGCAAUAUUACGUGCG | -0.0545 ± 0.077 | 0.038 ± 0.094 |
| GCUUAGCAAUAUUACGACUG | -1.67 ± 0.1 | -0.937 ± 0.11 |
| ACUGAGCAAUAUUACGGCAU | -0.643 ± 0.071 | -0.708 ± 0.1 |
| AUACAGCAAUAUUACGGCCG | -1.33 ± 0.16 | -1.14 ± 0.23 |
| ACCGAGCAAUAUUACGCGCU | -2.81 ± 0.17 | -1.19 ± 0.19 |
| GCCGAGCAAUAUUACGUUUG | -3.75 ± 0.2 | -1.54 ± 0.19 |
| ACCCAGCAAUAUUACGUCAC | -3.29 ± 0.14 | -2.18 ± 0.15 |
| UAUCAGCAAUAUUACGAUAU | -2.41 ± 0.11 | -1.64 ± 0.13 |
| UUGCAGCAAUAUUACGCGGA | -1.29 ± 0.12 | -0.882 ± 0.13 |
| GGUAAGCAAUAUUACGAGCU | -3.03 ± 0.35 | -1.36 ± 0.25 |
| UUAGAGCAAUAUUACGAUCG | -1.29 ± 0.15 | -1.67 ± 0.16 |
| CACUAGCAAUAUUACGGUGG | -2.3 ± 0.067 | -0.616 ± 0.075 |
| CCGGAGCAAUAUUACGGAGG | – | -2.35 ± 0.25 |
| CAAUAGCAAUAUUACGCAGA | -3.78 ± 0.42 | -2.14 ± 0.18 |

| Sequence | self-splicing fitness (ln) (30 °C) | self-splicing fitness (ln) (37 °C) |
| --- | --- | --- |
| UUAAAGCAAUAUUACGUUUC | -3.92 ± 0.39 | -1.18 ± 0.31 |
| CAUCAGCAAUAUUACGCUUG | -2.08 ± 0.084 | -1.03 ± 0.098 |
| UAUCAGCAAUAUUACGUAGC | -2.63 ± 0.16 | -1.42 ± 0.2 |
| CAUAAGCAAUAUUACGCCUU | -3.7 ± 0.19 | -1.96 ± 0.17 |
| AAUUAGCAAUAUUACGACUU | 0.0659 ± 0.11 | 0.0237 ± 0.14 |
| UACCAGCAAUAUUACGACCA | -0.314 ± 0.081 | 0.106 ± 0.1 |
| UACAAGCAAUAUUACGAAAA | -1.94 ± 0.19 | -1.22 ± 0.15 |
| UGACAGCAAUAUUACGGAUA | -1.25 ± 0.095 | -0.669 ± 0.11 |
| UGCCAGCAAUAUUACGGAGG | -3.51 ± 0.17 | -1.83 ± 0.17 |
| GUGAAGCAAUAUUACGAGCA | 0.204 ± 0.1 | -0.115 ± 0.14 |
| CCGAAGCAAUAUUACGAUGC | -4.36 ± 0.26 | -2.34 ± 0.23 |
| CCAGAGCAAUAUUACGGACU | -3.62 ± 0.48 | -0.487 ± 0.4 |
| CUAGAGCAAUAUUACGCGUA | -3.78 ± 0.2 | -2.97 ± 0.26 |
| CAUAAGCAAUAUUACGACGC | -2.7 ± 0.25 | -0.823 ± 0.19 |
| AGGGAGCAAUAUUACGGCCU | -2.43 ± 0.22 | -1.41 ± 0.24 |
| CCCUAGCAAUAUUACGUUGA | -3.23 ± 0.19 | -2.83 ± 0.23 |
| CUGCAGCAAUAUUACGGUAG | -3.65 ± 0.1 | -2.45 ± 0.11 |
| GCUCAGCAAUAUUACGCGGG | -3.41 ± 0.2 | -2.78 ± 0.2 |
| CUUAAGCAAUAUUACGAGGC | -3.19 ± 0.32 | -2.53 ± 0.41 |
| GACAAGCAAUAUUACGGUCC | -3.13 ± 0.2 | -1.83 ± 0.29 |
| AUUUAGCAAUAUUACGACCG | -1.54 ± 0.24 | -0.522 ± 0.23 |
| UUGGAGCAAUAUUACGAGAA | – | -1.78 ± 0.44 |
| UAUAAGCAAUAUUACGUCGC | -3.29 ± 0.28 | -2.24 ± 0.37 |
| AAAGAGCAAUAUUACGUCCU | -1.93 ± 0.13 | -0.831 ± 0.12 |
| CAUGAGCAAUAUUACGGGAC | -2.99 ± 0.18 | -1.95 ± 0.24 |

Reference: the supplement of paper PMC7877785
